B1: Ac-GAGDSC (SEQ ID NO: 30), immobilized on a monolayer array (peptide)
peptide: Ac-GAGDSC(maleimide monolayer)-NH2
modifications: not fully specified; printed as Ac-GAGDSC; reading uncertain
notes: also called 0.5% Ac-GAGDSC; Ac-GXGDSC with X = Ala
B2: Ac-GGGDSC (SEQ ID NO: 29), immobilized on a monolayer array (peptide)
peptide: Ac-GGGDSC(maleimide monolayer)-NH2
modifications: not fully specified; printed as Ac-GGGDSC; reading uncertain
notes: also called 0.5% Ac-GGGDSC; Ac-GXGDSC with X = Gly
B3: Ac-GIGDSC (SEQ ID NO: 33), immobilized on a monolayer array (peptide)
peptide: Ac-GIGDSC(maleimide monolayer)-NH2
modifications: not fully specified; printed as Ac-GIGDSC; reading uncertain
notes: also called 0.5% Ac-GIGDSC; Ac-GXGDSC with X = Ile
B4: Ac-GKGDSC (SEQ ID NO: 31), immobilized on a monolayer array (peptide)
peptide: Ac-GKGDSC(maleimide monolayer)-NH2
modifications: not fully specified; printed as Ac-GKGDSC; reading uncertain
notes: also called 0.5% Ac-GKGDSC; Ac-GXGDSC with X = Lys
B5: Ac-GVGDSC (SEQ ID NO: 32), immobilized on a monolayer array (peptide)
peptide: Ac-GVGDSC(maleimide monolayer)-NH2
modifications: not fully specified; printed as Ac-GVGDSC; reading uncertain
notes: also called 0.5% Ac-GVGDSC; Ac-GXGDSC with X = Val
B6: Ac-GLGDSC (SEQ ID NO: 34), immobilized on a monolayer array (peptide)
peptide: Ac-GLGDSC(maleimide monolayer)-NH2
modifications: not fully specified; printed as Ac-GLGDSC; reading uncertain
notes: also called 0.5% Ac-GLGDSC; Ac-GXGDSC with X = Leu

maleimide monolayer = not defined here

One assay deals with αIIbβ3 CHO K1 cells. Description: Cell adhesion assay: αIIbβ3 CHO K1 cells on SAMs presenting immobilized peptides. The format is cell-based, human. To be noted: 0.5% peptide SAM; in presence of 300 μM cRGDFG. As for the experimental part: Monolayers were prepared as described (Houseman, et al., 2003). Glass coverslips were sonicated for 30 minutes in deionized ultrafiltered (DIUF) water and then 30 minutes in ethanol and then dried under a stream of nitrogen. Titanium (4 nm) and then gold (29 nm) were evaporated onto the coverslips using an electron beam evaporator (Boc Edwards) at a rate of 0.05-0.10 nm/s and at a pressure of 1 μTorr. The gold-coated coverslips were immersed in an ethanolic solution of maleimide-terminated disulfide (1%) and tri(ethylene glycol)-terminated disulfide (99%) overnight at room temperature. The total disulfide concentration was 1 mM. The substrates were washed with DIUF water, ethanol and then dried under a stream of nitrogen.
The pcDNA3.1 vectors that express human αIIb or β3, respectively, have been described previously (see e.g., Litvinov et al. (2006) Biochemistry, 45: 4957-4964). CHO K1, BHK 21 and HT1080 cells were purchased from ATCC. All CHO cells were cultured at 37° C. and 5% CO2 using F12K medium supplemented with 10% FBS and pen/strep. […] CHO K1 cells were transfected with αIIb and β3 cDNA with FuGENE following the supplier's protocol. Transfected cells were selected with 1 mg/mL zeocin and 1 mg/mL geneticin.
(§1) Cysteine-terminated peptides were immobilized onto maleimide-presenting SAMs by adding 40 μL of 1 mM peptide solution to the biochip and incubating at 37° C. for 1 hour. Substrates were rinsed with DIUF water and ethanol and dried under a stream of nitrogen. αIIbβ3 CHO K1 cells were detached from culture plates with 1 mM EGTA/2 mM EDTA in PBS (phosphate-buffered saline), rinsed with serum-free F-12K medium, centrifuged and resuspended in serum-free F-12K medium supplemented with cRGDFG (SEQ ID NO: 12) (300 μM) and 1× penicillin/streptomycin. After 15-minute of incubation, cells (200,000/mL) were added to substrates in 24-well culture plates. After 2 hour incubation at 37° C. and 5% CO2, media was exchanged for F-12K medium supplemented with 10% FBS, 1× penicillin/streptomycin and cRGDFG (SEQ ID NO: 12) (300 μM). After 2 hours, the substrates were washed gently with warm PBS, and adherent cells were immediately fixed with 4% formaldehyde for 30 minutes, visualized with a 20× objective of a Zeiss Axiovert 200 inverted microscope, and photographed. For cell adhesion assays mediated by Ac-GXGDSC (SEQ ID NO: 26), αIIbβ3 CHO K1 cells were incubated on a 5×4 circle (1 mm diameter) array for 1 hour with serum-free F-12K medium supplemented with cRGDFG (SEQ ID NO: 12) (300 μM) and 1× penicillin/streptomycin, followed by media exchange to F-12K medium supplemented with 10% FBS, 1× penicillin/streptomycin and cRGDFG (SEQ ID NO: 12) (300 μM. The substrates were washed with warm PBS, and adherent cells were immediately fixed and permeabilized with 4% formaldehyde and 0.5% Triton-X for 30 minutes. Fixed cells were stained with DAPI, visualized and photographed with a 20× objective as described. The number of adherent cells per field of view was counted using Image J software. Cells were counted in at least three fields for each circle, and each experiment was repeated 3 times. The degree of adhesion is reported as a percentage of cells that adhere relative to control experiments with the peptide Ac-GRGDSC (SEQ ID NO: 28).
Monolayers were prepared that presented a mixture of maleimide groups and tri(ethylene glycol) groups with the former present at a density of 0.5% (relative to total alkanethiolate). The monolayers were treated with cysteine-terminated peptides to immobilize the ligands (FIG. 1A). In each case mass spectrometry was used to verify immobilization of the peptides in high yield (Su et al., 2002).
The adhesion and spreading of αIIbβ3 CHO K1 cells to monolayers presenting GRGDSC (SEQ ID NO: 11), HHLGGAKQAGDVC (SEQ ID NO: 21) and a mixture of both peptides was compared. […]
Consider AGDVC (completely synthesized peptide), for which the “adhesion of αIIbβ3 CHO K1 cells to monolayer presenting the peptide” value (“adhesion of αIIbβ3 CHO K1 cells” below) is reported as “adhered”.

As to GDVC (completely synthesized peptide), the “adhesion of αIIbβ3 CHO K1 cells” value is recorded as “failed to adhere”. The same measure, in the same setting: for “GGAKQAC (completely synthesized peptide)” the value was “failed to adhere”. Consider GHHLGGADQAGKVC (scrambled peptide), for which the “adhesion of αIIbβ3 CHO K1 cells” value is listed as “lack of cell attachment”. Same read-out and setting: for “HHLGGAC (completely synthesized peptide)” the value was “failed to adhere”; for KQAGC (completely synthesized peptide), “failed to adhere”; for KQAGDC (completely synthesized peptide), “adhered”.

In another assay the target is T1, human αIIbβ3 integrin on transfected CHO K1 cells (human, UniProt P08514 32-1039; P05106 27-788).
T1 construct: whole, on cells; CHO K1 cells transfected with human αIIb and β3 cDNA; about 30% of the cells expressed the receptor; also called platelet receptor; platelet integrin
Description: Ac-GXGDSC peptide array, adhesion of αIIbβ3 CHO K1 cells.
Settings: not given
As for the experimental part: as §1, with “After” for “Cysteine-terminated peptides were immobilized onto maleimide-presenting SAMs by adding 40 μL of 1 mM peptide solution to the biochip and incubating at 37° C. for 1 hour. Substrates were rinsed with DIUF water and ethanol and dried under a stream of nitrogen. αIIbβ3 CHO K1 cells were detached from culture plates with 1 mM EGTA/2 mM EDTA in PBS (phosphate-buffered saline), rinsed with serum-free F-12K medium, centrifuged and resuspended in serum-free F-12K medium supplemented with cRGDFG (SEQ ID NO: 12) (300 μM) and 1× penicillin/streptomycin. After”, “CO₂,” for “CO2,”
To further assay the binding of peptide ligands to the […] integrin for XGD peptide ligands, an array was used to assess the adhesion of cells to peptides having the arginine residue substituted with each amino acid other than cysteine (e.g., A, D, E, F, G, H, I, K, L, M, N, P, Q, R, S, T, V, W, and Y). The library of Ac-GXGDSC (SEQ ID NO: 26) peptides was synthesized and immobilized in an array with each peptide occupying a 1 mm diameter region of the monolayer (FIG. 61). A suspension of αIIbβ3 CHO K1 cells was applied to the entire array and cells were allowed to attach to regions presenting the various peptides. The substrates were then rinsed and stained with DAPI, and the cells were counted to determine the relative efficiency of cell attachment to peptides in the library.
As for B1, the binding result was “binds”.

In the case of Ac-GDGDSC(maleimide monolayer)-NH2 (not fully specified; printed as Ac-GXGDSC; reading uncertain, Member of the Ac-GXGDSC library) [Ac-GXGDSC (SEQ ID NO: 26) with X = D, immobilized on a monolayer array], the binding result is “no binding”. Same read-out and setting: for Ac-GTGDSC(maleimide monolayer)-NH2 (not fully specified; printed as Ac-GXGDSC; reading uncertain, Member of the Ac-GXGDSC library) [Ac-GXGDSC (SEQ ID NO: 26) with X = T, immobilized on a monolayer array] the value was “no binding”; for Ac-GWGDSC(maleimide monolayer)-NH2 (reading uncertain; also: printed as Ac-GXGDSC, Member of the Ac-GXGDSC library) [Ac-GXGDSC (SEQ ID NO: 26) with X = W, immobilized on a monolayer array], “no binding”; for B2, “binds”.

For the molecule Ac-GFGDSC(maleimide monolayer)-NH2 (not fully specified; printed as Ac-GXGDSC; reading uncertain, Member of the Ac-GXGDSC library) [Ac-GXGDSC (SEQ ID NO: 26) with X = F, immobilized on a monolayer array], the binding result was “no binding”. Still for that read-out and setting: as for Ac-GQGDSC(maleimide monolayer)-NH2 (not fully specified; printed as Ac-GXGDSC; reading uncertain, Member of the Ac-GXGDSC library) [Ac-GXGDSC (SEQ ID NO: 26) with X = Q, immobilized on a monolayer array], the entry is “no binding”; as for Ac-GPGDSC(maleimide monolayer)-NH2 (not fully specified; printed as Ac-GXGDSC; reading uncertain, Member of the Ac-GXGDSC library) [Ac-GXGDSC (SEQ ID NO: 26) with X = P, immobilized on a monolayer array], “no binding”. Turning to B3, the binding result is on record as “binds”. Consider Ac-GHGDSC(maleimide monolayer)-NH2 (not fully specified; printed as Ac-GXGDSC; reading uncertain, Member of the Ac-GXGDSC library) [Ac-GXGDSC (SEQ ID NO: 26) with X = H, immobilized on a monolayer array], for which the binding result is on record as “no binding”. In the case of B4, the binding result is “binds”. The same measure, in the same setting: as for Ac-GSGDSC(maleimide monolayer)-NH2 (not fully specified; printed as Ac-GXGDSC; reading uncertain, Member of the Ac-GXGDSC library) [Ac-GXGDSC (SEQ ID NO: 26) with X = S, immobilized on a monolayer array], the entry is “no binding”; as for Ac-GMGDSC(maleimide monolayer)-NH2 (not fully specified; printed as Ac-GXGDSC; reading uncertain, Member of the Ac-GXGDSC library) [Ac-GXGDSC (SEQ ID NO: 26) with X = M, immobilized on a monolayer array], “no binding”. Regarding B5, the binding result is listed as “binds”. Same read-out and setting: as for Ac-GYGDSC(maleimide monolayer)-NH2 (reading uncertain; also: printed as Ac-GXGDSC, Member of the Ac-GXGDSC library) [Ac-GXGDSC (SEQ ID NO: 26) with X = Y, immobilized on a monolayer array], the entry is “no binding”. The same measure, in the same setting: as for B6, the entry is “binds”; as for Ac-GRGDSC(maleimide monolayer)-NH2 (not fully specified; printed as Ac-GRGDSC; reading uncertain, also called 0.5% Ac-GRGDSC) [Ac-GRGDSC (SEQ ID NO: 28), immobilized on a monolayer array], “binds”.

For the origin of these results see patent US20120252730A1, “PLATELET AGGREGATION INHIBITORS” (UNIVERSITY OF CHICAGO, priority 2009, published 2012).
